Measurements: paper PMC6336319, “EBNA3C facilitates RASSF1A downregulation through ubiquitin-mediated degradation and promoter hypermethylation to drive B-cell proliferation” (PLoS Pathogens, 2019)

Target: T1, Flag-tagged EBNA3C 366-620 (Epstein-Barr virus, UniProt P03204 366-620)
T1 construct: also called pA3F-EBNA3C 366–620; EBNA3C 366-620aa; source: Saos-2, transfected, in lysate
T1 sequence: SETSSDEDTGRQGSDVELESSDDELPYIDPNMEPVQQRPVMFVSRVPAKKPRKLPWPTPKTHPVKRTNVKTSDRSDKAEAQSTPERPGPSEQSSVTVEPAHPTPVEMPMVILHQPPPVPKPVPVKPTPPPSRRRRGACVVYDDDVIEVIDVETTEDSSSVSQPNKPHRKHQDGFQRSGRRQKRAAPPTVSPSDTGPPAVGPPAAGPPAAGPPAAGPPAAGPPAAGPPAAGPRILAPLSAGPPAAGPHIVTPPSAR
Assay: co-IP; Saos-2 cells co-transfected, lysed 48 h later in RIPA buffer (1% NP-40, 10 mM Tris pH 8.0, 2 mM EDTA, 150 mM NaCl); immunoprecipitation with 1 ug anti-Flag antibody, overnight at 4 °C; western blot with anti-Flag and anti-Myc
Details: partners not purified

B1: Myc-tagged full-length RASSF1A (Ras association domain family isoform 1A) (natural protein, human, UniProt Q9NS23-2 1-340, looked up)
chain: MSGEPELIELRELAPAGRAGKGRTRLERANALRIARGTACNPTRQLVPGRGHRFQPAGPATHTWCDLCGDFIWGVVRKGLQCAHCKFTCHYRCRALVCLDCCGPRDLGWEPAVERDTNVDEPVEWETPDLSQAEIEQKIKEYNAQINSNLFMSLNKDGSYTGFIKVQLKLVRPVSVPSSKKPPSLQDARRGPGRGTSVRRRTSFYLPKDAVKHLHVLSRTRAREVIEALLRKFLVVDDPRKFALFERAERHGQVYLRKLLDDEQPLRLRLLAGPSDKALSFVLKENDSGEVNWDAFSMPELHNFLRILQREEEEHLRQILQKYSYCRQKIQEALHACPLG
notes: RASSF1A (Ras association domain family isoform 1A), full length, amplified from total RNA by RT-PCR and cloned into pA3M; also called Myc-RASSF1A; pA3M-RASSF1A; source: Saos-2, transfected, in lysate
**Q.** Which “signal relative to EBNA3C residues 1-365” value does the source give for B1 here?
**A.** ~50%
